Experiment [1] concerns GFP-14-3-3β. In words: GFP-14-3-3β co-IP with LC-MS/MS, untreated GFP-14-3-3β versus GFP control (14-3-3 interactome). The class given is binding, human. The settings on record: 3 replicates each.
For experiment [2], the system named is GFP-14-3-3β and its binding proteins. In words: GFP-14-3-3β co-IP with LC-MS/MS label-free quantification, untreated versus PP1c-treated. Also noted: species or system human. To be noted: pairwise comparison PP1 vs untreated, 3 replicates each.
Where [3] appears, read: pairwise comparison untreated GFP-14-3-3β vs GFP, student's t-test, LC-MS/MS label-free quantification.
Where [4] appears, read: student's t-test, LC-MS/MS label-free quantification.
Where [5] appears, read: log2 difference, pairwise comparison untreated vs GFP, label-free quantification.
[6] abbreviates: log2 difference, label-free quantification.

B1: CYFIP1 (protein, UniProt Q7L576 1-1253, looked up)
Cytoplasmic FMR1-interacting …: MAAQVTLEDALSNVDLLEELPLPDQQPCIEPPPSSLLYQPNFNTNFEDRNAFVTGIARYIEQATVHSSMNEMLEEGQEYAVMLYTWRSCSRAIPQVKCNEQPNRVEIYEKTVEVLEPEVTKLMNFMYFQRNAIERFCGEVRRLCHAERRKDFVSEAYLITLGKFINMFAVLDELKNMKCSVKNDHSAYKRAAQFLRKMADPQSIQESQNLSMFLANHNKITQSLQQQLEVISGYEELLADIVNLCVDYYENRMYLTPSEKHMLLKVMGFGLYLMDGSVSNIYKLDAKKRINLSKIDKYFKQLQVVPLFGDMQIELARYIKTSAHYEENKSRWTCTSSGSSPQYNICEQMIQIREDHMRFISELARYSNSEVVTGSGRQEAQKTDAEYRKLFDLALQGLQLLSQWSAHVMEVYSWKLVHPTDKYSNKDCPDSAEEYERATRYNYTSEEKFALVEVIAMIKGLQVLMGRMESVFNHAIRHTVYAALQDFSQVTLREPLRQAIKKKKNVIQSVLQAIRKTVCDWETGHEPFNDPALRGEKDPKSGFDIKVPRRAVGPSSTQLYMVRTMLESLIADKSGSKKTLRSSLEGPTILDIEKFHRESFFYTHLINFSETLQQCCDLSQLWFREFFLELTMGRRIQFPIEMSMPWILTDHILETKEASMMEYVLYSLDLYNDSAHYALTRFNKQFLYDEIEAEVNLCFDQFVYKLADQIFAYYKVMAGSLLLDKRLRSECKNQGATIHLPPSNRYETLLKQRHVQLLGRSIDLNRLITQRVSAAMYKSLELAIGRFESEDLTSIVELDGLLEINRMTHKLLSRYLTLDGFDAMFREANHNVSAPYGRITLHVFWELNYDFLPNYCYNGSTNRFVRTVLPFSQEFQRDKQPNAQPQYLHGSKALNLAYSSIYGSYRNFVGPPHFQVICRLLGYQGIAVVMEELLKVVKSLLQGTILQYVKTLMEVMPKICRLPRHEYGSPGILEFFHHQLKDIVEYAELKTVCFQNLREVGNAILFCLLIEQSLSLEEVCDLLHAAPFQNILPRVHVKEGERLDAKMKRLESKYAPLHLVPLIERLGTPQQIAIAREGDLLTKERLCCGLSMFEVILTRIRSFLDDPIWRGPLPSNGVMHVDECVEFHRLWSAMQFVYCIPVGTHEFTVEQCFGDGLHWAGCMIIVLLGQQRRFAVLDFCYHLLKVQKHDGKDEIIKNVPLKKMVERIRKFQILNDEIITILDKYLKSGDGEGTPVEHVRCFQPPIHQSLASS
With B1, in experiment [1] (setting [3]), the “Difference (log2), untreated vs GFP” value is 3.924 log2. In addition, the “Difference (log2), PP1 vs untreated” value in experiment [2] (setting [4]) is given as -2.17 log2.

B2: RNPC3 (protein, UniProt Q96LT9 1-517, looked up)
RNA-binding region-containing …: MAAPEQPLAISRGCTSSSSLSPPRGDRTLLVRHLPAELTAEEKEDLLKYFGAQSVRVLSDKGRLKHTAFATFPNEKAAIKALTRLHQLKLLGHTLVVEFAKEQDRVHSPCPTSGSEKKKRSDDPVEDDKEKKELGYLTVENGIAPNHGLTFPLNSCLKYMYPPPSSTILANIVNALASVPKFYVQVLHLMNKMNLPTPFGPITARPPMYEDYMPLHAPLPPTSPQPPEEPPLPDEDEELSSEESEYESTDDEDRQRMNKLMELANLQPKRPKTIKQRHVRKKRKIKDMLNTPLCPSHSSLHPVLLPSDVFDQPQPVGNKRIEFHISTDMPAAFKKDLEKEQNCEEKNHDLPATEVDASNIGFGKIFPKPNLDITEEIKEDSDEMPSECISRRELEKGRISREEMETLSVFRSYEPGEPNCRIYVKNLAKHVQEKDLKYIFGRYVDFSSETQRIMFDIRLMKEGRMKGQAFIGLPNEKAAAKALKEANGYVLFGKPMVVQFARSARPKQDPKEGKRKC
As for B2, the “Difference (log2), untreated vs GFP” value in experiment [1] (setting [5]) was -2.187. Moreover, in experiment [2] (setting [6]), the “Difference (log2), PP1 vs untreated” value amounted to 5.4303.

B3: DDX1 (protein, UniProt Q92499 1-740, looked up)
ATP-dependent RNA helicase …: MAAFSEMGVMPEIAQAVEEMDWLLPTDIQAESIPLILGGGDVLMAAETGSGKTGAFSIPVIQIVYETLKDQQEGKKGKTTIKTGASVLNKWQMNPYDRGSAFAIGSDGLCCQSREVKEWHGCRATKGLMKGKHYYEVSCHDQGLCRVGWSTMQASLDLGTDKFGFGFGGTGKKSHNKQFDNYGEEFTMHDTIGCYLDIDKGHVKFSKNGKDLGLAFEIPPHMKNQALFPACVLKNAELKFNFGEEEFKFPPKDGFVALSKAPDGYIVKSQHSGNAQVTQTKFLPNAPKALIVEPSRELAEQTLNNIKQFKKYIDNPKLRELLIIGGVAARDQLSVLENGVDIVVGTPGRLDDLVSTGKLNLSQVRFLVLDEADGLLSQGYSDFINRMHNQIPQVTSDGKRLQVIVCSATLHSFDVKKLSEKIMHFPTWVDLKGEDSVPDTVHHVVVPVNPKTDRLWERLGKSHIRTDDVHAKDNTRPGANSPEMWSEAIKILKGEYAVRAIKEHKMDQAIIFCRTKIDCDNLEQYFIQQGGGPDKKGHQFSCVCLHGDRKPHERKQNLERFKKGDVRFLICTDVAARGIDIHGVPYVINVTLPDEKQNYVHRIGRVGRAERMGLAISLVATEKEKVWYHVCSSRGKGCYNTRLKEDGGCTIWYNEMQLLSEIEEHLNCTISQVEPDIKVPVDEFDGKVTYGQKRAAGGGSYKGHVDILAPTVQELAALEKEAQTSFLHLGYLPNQLFRTF
B3: the “Difference (log2), untreated vs GFP” value in experiment [1] (setting [5]) is listed as -0.009417. In experiment [2] (setting [6]), the “Difference (log2), PP1 vs untreated” value worked out at 1.563.

B4: HDAC4 (protein, UniProt P56524 1-1084, looked up)
Histone deacetylase 4: MSSQSHPDGLSGRDQPVELLNPARVNHMPSTVDVATALPLQVAPSAVPMDLRLDHQFSLPVAEPALREQQLQQELLALKQKQQIQRQILIAEFQRQHEQLSRQHEAQLHEHIKQQQEMLAMKHQQELLEHQRKLERHRQEQELEKQHREQKLQQLKNKEKGKESAVASTEVKMKLQEFVLNKKKALAHRNLNHCISSDPRYWYGKTQHSSLDQSSPPQSGVSTSYNHPVLGMYDAKDDFPLRKTASEPNLKLRSRLKQKVAERRSSPLLRRKDGPVVTALKKRPLDVTDSACSSAPGSGPSSPNNSSGSVSAENGIAPAVPSIPAETSLAHRLVAREGSAAPLPLYTSPSLPNITLGLPATGPSAGTAGQQDAERLTLPALQQRLSLFPGTHLTPYLSTSPLERDGGAAHSPLLQHMVLLEQPPAQAPLVTGLGALPLHAQSLVGADRVSPSIHKLRQHRPLGRTQSAPLPQNAQALQHLVIQQQHQQFLEKHKQQFQQQQLQMNKIIPKPSEPARQPESHPEETEEELREHQALLDEPYLDRLPGQKEAHAQAGVQVKQEPIESDEEEAEPPREVEPGQRQPSEQELLFRQQALLLEQQRIHQLRNYQASMEAAGIPVSFGGHRPLSRAQSSPASATFPVSVQEPPTKPRFTTGLVYDTLMLKHQCTCGSSSSHPEHAGRIQSIWSRLQETGLRGKCECIRGRKATLEELQTVHSEAHTLLYGTNPLNRQKLDSKKLLGSLASVFVRLPCGGVGVDSDTIWNEVHSAGAARLAVGCVVELVFKVATGELKNGFAVVRPPGHHAEESTPMGFCYFNSVAVAAKLLQQRLSVSKILIVDWDVHHGNGTQQAFYSDPSVLYMSLHRYDDGNFFPGSGAPDEVGTGPGVGFNVNMAFTGGLDPPMGDAEYLAAFRTVVMPIASEFAPDVVLVSSGFDAVEGHPTPLGGYNLSARCFGYLTKQLMGLAGGRIVLALEGGHDLTAICDASEACVSALLGNELDPLPEKVLQQRPNANAVRSMEKVMEIHSKYWRCLQRTTSTAGRSLIEAQTCENEEAETVTAMASLSVGVKPAEKRPDEEPMEEEPPL
Regarding B4, the “Difference (log2), untreated vs GFP” value in experiment [1] (setting [3]) came to 7.6192 log2. Also, the “Difference (log2), PP1 vs untreated” value in experiment [2] (setting [4]) is on record as -2.1937 log2.

B5: SORBS2 (protein, UniProt O94875 1-1100, looked up)
Sorbin and SH3 …: MSYYQRPFSPSAYSLPASLNSSIVMQHGTSLDSTDTYPQHAQSLDGTTSSSIPLYRSSEEEKRVTVIKAPHYPGIGPVDESGIPTAIRTTVDRPKDWYKTMFKQIHMVHKPDDDTDMYNTPYTYNAGLYNPPYSAQSHPAAKTQTYRPLSKSHSDNSPNAFKDASSPVPPPHVPPPVPPLRPRDRSSTEKHDWDPPDRKVDTRKFRSEPRSIFEYEPGKSSILQHERPASLYQSSIDRSLERPMSSASMASDFRKRRKSEPAVGPPRGLGDQSASRTSPGRVDLPGSSTTLTKSFTSSSPSSPSRAKGGDDSKICPSLCSYSGLNGNPSSELDYCSTYRQHLDVPRDSPRAISFKNGWQMARQNAEIWSSTEETVSPKIKSRSCDDLLNDDCDSFPDPKVKSESMGSLLCEEDSKESCPMAWGSPYVPEVRSNGRSRIRHRSARNAPGFLKMYKKMHRINRKDLMNSEVICSVKSRILQYESEQQHKDLLRAWSQCSTEEVPRDMVPTRISEFEKLIQKSKSMPNLGDDMLSPVTLEPPQNGLCPKRRFSIEYLLEEENQSGPPARGRRGCQSNALVPIHIEVTSDEQPRAHVEFSDSDQDGVVSDHSDYIHLEGSSFCSESDFDHFSFTSSESFYGSSHHHHHHHHHHHRHLISSCKGRCPASYTRFTTMLKHERARHENTEEPRRQEMDPGLSKLAFLVSPVPFRRKKNSAPKKQTEKAKCKASVFEALDSALKDICDQIKAEKKRGSLPDNSILHRLISELLPDVPERNSSLRALRRSPLHQPLHPLPPDGAIHCPPYQNDCGRMPRSASFQDVDTANSSCHHQDRGGALQDRESPRSYSSTLTDMGRSAPRERRGTPEKEKLPAKAVYDFKAQTSKELSFKKGDTVYILRKIDQNWYEGEHHGRVGIFPISYVEKLTPPEKAQPARPPPPAQPGEIGEAIAKYNFNADTNVELSLRKGDRVILLKRVDQNWYEGKIPGTNRQGIFPVSYVEVVKKNTKGAEDYPDPPIPHSYSSDRIHSLSSNKPQRPVFTHENIQGGGEPFQALYNYTPRNEDELELRESDVIDVMEKCDDGWFVGTSRRTKFFGTFPGNYVKRL
In the case of B5, the “Difference (log2), untreated vs GFP” value in experiment [1] (setting [3]) is given as 3.7091 log2. For the same molecule, the “Difference (log2), PP1 vs untreated” value in experiment [2] (setting [4]) is reported as -2.05 log2.

B6: SND1 (protein, UniProt Q7KZF4 2-910, looked up)
Staphylococcal nuclease …: ASSAQSGGSSGGPAVPTVQRGIIKMVLSGCAIIVRGQPRGGPPPERQINLSNIRAGNLARRAAATQPDAKDTPDEPWAFPAREFLRKKLIGKEVCFTIENKTPQGREYGMIYLGKDTNGENIAESLVAEGLATRREGMRANNPEQNRLSECEEQAKAAKKGMWSEGNGSHTIRDLKYTIENPRHFVDSHHQKPVNAIIEHVRDGSVVRALLLPDYYLVTVMLSGIKCPTFRREADGSETPEPFAAEAKFFTESRLLQRDVQIILESCHNQNILGTILHPNGNITELLLKEGFARCVDWSIAVYTRGAEKLRAAERFAKERRLRIWRDYVAPTANLDQKDKQFVAKVMQVLNADAIVVKLNSGDYKTIHLSSIRPPRLEGENTQDKNKKLRPLYDIPYMFEAREFLRKKLIGKKVNVTVDYIRPASPATETVPAFSERTCATVTIGGINIAEALVSKGLATVIRYRQDDDQRSSHYDELLAAEARAIKNGKGLHSKKEVPIHRVADISGDTQKAKQFLPFLQRAGRSEAVVEYVFSGSRLKLYLPKETCLITFLLAGIECPRGARNLPGLVQEGEPFSEEATLFTKELVLQREVEVEVESMDKAGNFIGWLHIDGANLSVLLVEHALSKVHFTAERSSYYKSLLSAEEAAKQKKEKVWAHYEEQPVEEVMPVLEEKERSASYKPVFVTEITDDLHFYVQDVETGTQLEKLMENMRNDIASHPPVEGSYAPRRGEFCIAKFVDGEWYRARVEKVESPAKIHVFYIDYGNREVLPSTRLGTLSPAFSTRVLPAQATEYAFAFIQVPQDDDARTDAVDSVVRDIQNTQCLLNVEHLSAGCPHVTLQFADSKGDVGLGLVKEGLVMVEVRKEKQFQKVITEYLNAQESAKSARLNLWRYGDFRADDADEFGYSR
As for B6, in experiment [1] (setting [5]), the “Difference (log2), untreated vs GFP” value is recorded as -0.5008. For the same molecule, the “Difference (log2), PP1 vs untreated” value in experiment [2] (setting [6]) is on record as 1.5668.

(Values after article PMC7367873, “Dissecting the sequence determinants for dephosphorylation by the catalytic subunits of phosphatases PP1 and PP2A” (Nature Communications, 2020).)
